The results in this text go back to article PMC4601075, “Specific binding of eukaryotic ORC to DNA replication origins depends on highly conserved basic residues” (Scientific Reports, 2015).

The target of data set [1] is T1, ORC (ScORC, ORC hexamer) (Saccharomyces cerevisiae, UniProt P54784+P54791).
T1 construct: gene ORC1; with Origin recognition complex subunit 2; Origin recognition complex subunit 3; Origin recognition complex subunit 5; Origin recognition complex subunit 6
Nature of the data set: nitrocellulose filter binding, Scatchard plot. The source says: (§1) nitrocellulose filter binding, Scatchard plot on ORC (ScORC, ORC hexamer)

In data set [2] the target is T2, ORC (ScORC, ORC hexamer) (Saccharomyces cerevisiae, UniProt P54784+P54791, P54784:K362A).
T2 construct: gene ORC1; with Origin recognition complex subunit 2; Origin recognition complex subunit 3; Origin recognition complex subunit 5; Origin recognition complex subunit 6
Nature of the data set: nitrocellulose filter binding, Scatchard plot.
Description: as §1

For data set [3], the target named is T3, ORC (ScORC, ORC hexamer) (Saccharomyces cerevisiae, UniProt P54784+P54791, P54784:R367A).
T3 construct: gene ORC1; with Origin recognition complex subunit 2; Origin recognition complex subunit 3; Origin recognition complex subunit 5; Origin recognition complex subunit 6
The data set can be described thus: nitrocellulose filter binding, Scatchard plot.
Description: as §1

The subject of data set [4] is GH-Orc1 301-400 (Saccharomyces cerevisiae). The data set can be described thus: EMSA. Conditions: competitor DNA; 25 mM HEPES-KOH pH 7.6, 100 mM K glutamate, 5 mM Mg acetate, 5 mM CaCl2, 5 mM DTT, 5% glycerol, 0.1% Triton X-100, 2 mg/ml BSA, 1 mM ATP; 1.6 nM dsDNA or 3 nM …; scale: fold lower affinity than ORC hexamer.
The target in data set [5] is ORC-1K362A hexamer K362A (Saccharomyces cerevisiae) (UniProt P54784+P32833+P54790+P54791+P50874+P38826). The data set can be described thus: EMSA. Conditions: 25 mM HEPES-KOH pH 7.6, 100 mM K glutamate, 5 mM Mg acetate, 5 mM CaCl2, 5 mM DTT, 5% glycerol, 0.1% Triton X-100, 2 mg/ml BSA, 1 mM ATP; 1.6 nM dsDNA or 3 nM …. On the technique in general: In EMSA bound probe runs differently from free probe, usually more slowly.

For data set [6], the target named is ORC-1R367A hexamer R367A (Saccharomyces cerevisiae) (UniProt P54784+P32833+P54790+P54791+P50874+P38826). The data set can be described thus: EMSA. The conditions noted are these: 25 mM HEPES-KOH pH 7.6, 100 mM K glutamate, 5 mM Mg acetate, 5 mM CaCl2, 5 mM DTT, 5% glycerol, 0.1% Triton X-100, 2 mg/ml BSA, 1 mM ATP; 1.6 nM dsDNA or 3 nM ….
A further data set concerns the target ORC-1K362A hexamer (Saccharomyces cerevisiae, UniProt P54784;P32833;P54790;P54791;P50874;P38826 1-914;1-620;1-616;1-529;1-479;1-435, K362A). The data set can be described thus: EMSA; 1 mM ATP, competitor dsDNA; 25 mM HEPES-KOH pH 7.6, 100 mM K glutamate, 5 mM Mg acetate, 5 mM CaCl2, 5 mM DTT, 5% glycerol, 0.1% Triton X-100, 2 mg/ml BSA, 1 mM ATP; 1.6 nM dsDNA or 3 nM ssDNA, 300 ng GC-rich competitor in 5 ul, 10 min, room temperature. Conditions: protein: recombinant; tags: TEV-His on Orc1; copies: 1;1;1;1;1;1; label: 3' Cy5-ddUTP (terminal transferase).

For another data set, the target named is ORC-1R367A hexamer (Saccharomyces cerevisiae, UniProt P54784;P32833;P54790;P54791;P50874;P38826 1-914;1-620;1-616;1-529;1-479;1-435, R367A). The description is as above. The conditions noted are these: protein: recombinant; tags: TEV-His on Orc1; copies: 1;1;1;1;1;1; label: 3' Cy5-ddUTP (terminal transferase).
For data set [7], the target named is ORC hexamer wild-type (Orc1-TEV-His/Orc2/3/4/5/6) (Saccharomyces cerevisiae, UniProt P54784;P32833;P54790;P54791;P50874;P38826 1-914;1-620;1-616;1-529;1-479;1-435). Described as above. Conditions: protein: recombinant; tags: TEV-His on Orc1 (C-terminal by name); copies: 1;1;1;1;1;1; label: 3' Cy5-ddUTP (terminal transferase).
In data set [8] the target is T4, S. cerevisiae origin recognition complex (ORC) hexamer, wild type (S. cerevisiae, UniProt P54784 1-914; P32833 1-620; P54790 1-616; P54791 1-529; P50874 1-479; P38826 …).
T4 construct: Orc1, largest subunit of the S. cerevisiae origin recognition complex; expressed from ORC1-TEV-His; Orc2, subunit of the S. cerevisiae origin recognition complex; Orc3, subunit of the S. cerevisiae origin recognition complex; Orc4, subunit of the S. cerevisiae origin recognition complex; Orc5, subunit of the S. cerevisiae origin recognition complex; Orc6, subunit of the S. cerevisiae origin …
Nature of the data set: native gel or EMSA; ORC and Cdc6 incubated with Cy5-labeled ARS1 DNA (1.6 nM) and 300 ng GC-rich competitor, 10 min at room temperature, 25 mM HEPES-KOH pH 7.6, 100 mM potassium glutamate, 1 mM ATP; Cdc6-dependent supershift of the ORC-ARS1 complex on a 4% polyacrylamide gel. Conditions: both partners purified.

T3 sequence (P54784 whole entry R367A): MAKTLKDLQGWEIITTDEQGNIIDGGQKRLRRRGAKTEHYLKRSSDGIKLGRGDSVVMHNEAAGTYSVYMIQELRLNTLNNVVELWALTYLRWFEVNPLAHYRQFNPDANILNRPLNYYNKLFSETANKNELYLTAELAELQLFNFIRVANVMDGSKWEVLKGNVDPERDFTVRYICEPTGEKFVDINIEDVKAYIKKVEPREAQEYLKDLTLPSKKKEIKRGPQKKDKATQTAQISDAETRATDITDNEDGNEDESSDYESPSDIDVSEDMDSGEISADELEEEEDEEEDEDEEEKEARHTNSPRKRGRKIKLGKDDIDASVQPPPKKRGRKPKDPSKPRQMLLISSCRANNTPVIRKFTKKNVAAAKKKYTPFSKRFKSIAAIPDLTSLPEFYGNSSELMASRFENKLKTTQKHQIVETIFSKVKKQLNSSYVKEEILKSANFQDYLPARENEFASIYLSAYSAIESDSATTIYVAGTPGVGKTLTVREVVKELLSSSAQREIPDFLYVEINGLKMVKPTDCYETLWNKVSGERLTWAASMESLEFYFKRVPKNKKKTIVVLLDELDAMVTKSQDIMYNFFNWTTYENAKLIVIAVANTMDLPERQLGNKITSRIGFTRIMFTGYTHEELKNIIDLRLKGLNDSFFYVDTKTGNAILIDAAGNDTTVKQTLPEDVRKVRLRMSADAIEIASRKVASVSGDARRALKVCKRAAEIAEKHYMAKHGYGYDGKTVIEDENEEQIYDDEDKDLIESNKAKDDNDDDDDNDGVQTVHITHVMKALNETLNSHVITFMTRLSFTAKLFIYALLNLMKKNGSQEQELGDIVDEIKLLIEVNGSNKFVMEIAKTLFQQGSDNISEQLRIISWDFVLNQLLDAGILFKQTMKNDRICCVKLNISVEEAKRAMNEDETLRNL
T3 sequence (P54791 whole entry): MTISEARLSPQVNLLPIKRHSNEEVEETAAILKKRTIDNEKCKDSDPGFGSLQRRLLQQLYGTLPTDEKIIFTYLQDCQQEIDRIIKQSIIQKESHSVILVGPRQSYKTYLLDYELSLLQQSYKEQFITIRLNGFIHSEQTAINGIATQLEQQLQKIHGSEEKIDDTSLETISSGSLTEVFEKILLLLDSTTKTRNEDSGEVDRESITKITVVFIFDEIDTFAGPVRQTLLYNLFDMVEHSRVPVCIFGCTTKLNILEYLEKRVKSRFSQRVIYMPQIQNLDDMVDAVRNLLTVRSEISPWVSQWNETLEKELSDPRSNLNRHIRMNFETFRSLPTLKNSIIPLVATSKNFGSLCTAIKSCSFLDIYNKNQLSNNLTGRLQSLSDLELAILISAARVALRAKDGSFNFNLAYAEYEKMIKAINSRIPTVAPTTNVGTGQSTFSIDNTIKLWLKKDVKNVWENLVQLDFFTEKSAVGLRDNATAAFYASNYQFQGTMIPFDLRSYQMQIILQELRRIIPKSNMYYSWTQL
T3 sequence (P32833 whole entry partner): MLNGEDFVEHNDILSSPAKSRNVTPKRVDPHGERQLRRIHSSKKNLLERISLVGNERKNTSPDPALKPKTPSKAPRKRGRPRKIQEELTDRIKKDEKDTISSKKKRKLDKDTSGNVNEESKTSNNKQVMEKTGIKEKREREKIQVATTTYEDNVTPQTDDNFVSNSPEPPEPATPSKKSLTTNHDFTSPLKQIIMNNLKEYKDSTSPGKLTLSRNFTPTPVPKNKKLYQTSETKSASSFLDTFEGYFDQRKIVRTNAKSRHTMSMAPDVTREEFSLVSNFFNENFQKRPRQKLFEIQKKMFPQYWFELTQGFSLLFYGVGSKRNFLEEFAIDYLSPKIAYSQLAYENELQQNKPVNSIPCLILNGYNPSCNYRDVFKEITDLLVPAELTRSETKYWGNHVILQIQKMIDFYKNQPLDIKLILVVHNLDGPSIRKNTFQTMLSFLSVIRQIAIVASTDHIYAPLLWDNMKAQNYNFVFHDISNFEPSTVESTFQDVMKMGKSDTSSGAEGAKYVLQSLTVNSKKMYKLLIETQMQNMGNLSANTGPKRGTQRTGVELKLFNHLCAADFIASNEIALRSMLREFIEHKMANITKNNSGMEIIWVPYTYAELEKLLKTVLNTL
T3 sequence (P54790 2-616 partner): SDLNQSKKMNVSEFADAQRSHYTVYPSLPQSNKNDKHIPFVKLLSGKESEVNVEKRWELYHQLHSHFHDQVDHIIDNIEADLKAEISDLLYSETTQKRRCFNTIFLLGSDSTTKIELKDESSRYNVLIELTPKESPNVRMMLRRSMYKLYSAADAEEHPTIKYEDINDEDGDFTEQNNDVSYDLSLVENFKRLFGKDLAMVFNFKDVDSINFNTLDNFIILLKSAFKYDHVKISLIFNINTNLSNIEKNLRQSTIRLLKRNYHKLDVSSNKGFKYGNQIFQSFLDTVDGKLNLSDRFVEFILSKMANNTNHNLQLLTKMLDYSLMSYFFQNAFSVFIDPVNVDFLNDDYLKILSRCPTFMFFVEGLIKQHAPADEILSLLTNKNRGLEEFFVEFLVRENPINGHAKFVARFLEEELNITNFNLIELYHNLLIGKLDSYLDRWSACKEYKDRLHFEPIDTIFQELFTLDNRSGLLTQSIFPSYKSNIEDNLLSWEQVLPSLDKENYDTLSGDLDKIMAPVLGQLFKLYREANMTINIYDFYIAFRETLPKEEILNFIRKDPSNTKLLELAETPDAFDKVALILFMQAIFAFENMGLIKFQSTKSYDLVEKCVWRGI
T3 sequence (P50874 whole entry partner): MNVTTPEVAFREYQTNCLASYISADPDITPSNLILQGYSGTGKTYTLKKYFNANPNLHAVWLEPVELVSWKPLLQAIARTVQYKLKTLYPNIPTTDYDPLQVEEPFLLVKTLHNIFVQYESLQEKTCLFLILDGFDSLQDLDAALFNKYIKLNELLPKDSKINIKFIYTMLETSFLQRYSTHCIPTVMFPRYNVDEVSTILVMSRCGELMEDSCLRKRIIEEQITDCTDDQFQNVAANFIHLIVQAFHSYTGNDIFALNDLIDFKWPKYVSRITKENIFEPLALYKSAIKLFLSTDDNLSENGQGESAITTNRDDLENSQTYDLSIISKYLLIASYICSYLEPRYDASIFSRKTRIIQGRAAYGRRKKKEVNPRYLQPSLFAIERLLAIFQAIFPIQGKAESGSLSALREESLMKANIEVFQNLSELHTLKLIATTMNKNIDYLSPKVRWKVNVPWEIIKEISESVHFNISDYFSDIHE
T3 sequence (P38826 whole entry partner): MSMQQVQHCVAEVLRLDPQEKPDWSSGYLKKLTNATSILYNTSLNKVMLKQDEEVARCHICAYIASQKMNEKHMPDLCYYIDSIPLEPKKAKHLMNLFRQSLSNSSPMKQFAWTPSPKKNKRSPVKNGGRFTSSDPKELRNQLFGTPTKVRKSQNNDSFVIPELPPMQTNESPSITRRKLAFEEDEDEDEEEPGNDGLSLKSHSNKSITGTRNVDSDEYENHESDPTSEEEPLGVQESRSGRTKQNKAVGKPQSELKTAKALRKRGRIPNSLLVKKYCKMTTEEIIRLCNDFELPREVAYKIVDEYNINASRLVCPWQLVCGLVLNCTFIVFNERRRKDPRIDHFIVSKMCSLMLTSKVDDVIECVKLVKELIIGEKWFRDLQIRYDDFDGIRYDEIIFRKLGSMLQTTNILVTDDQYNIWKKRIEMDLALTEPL
T1 sequence (P54784 whole entry): as the sequence (P54784 whole entry R367A) above, with A367R counted along it
T1 sequence (P54791 whole entry): as the sequence (P54791 whole entry) above
T1 sequence (P32833 whole entry partner): as the sequence (P32833 whole entry partner) above
T1 sequence (P54790 2-616 partner): as the sequence (P54790 2-616 partner) above
T1 sequence (P50874 whole entry partner): as the sequence (P50874 whole entry partner) above
T1 sequence (P38826 whole entry partner): as the sequence (P38826 whole entry partner) above
T2 sequence (P54784 whole entry K362A): as the sequence (P54784 whole entry R367A) above, with K362A, A367R counted along it
T2 sequence (P54791 whole entry): as the sequence (P54791 whole entry) above
T2 sequence (P32833 whole entry partner): as the sequence (P32833 whole entry partner) above
T2 sequence (P54790 2-616 partner): as the sequence (P54790 2-616 partner) above
T2 sequence (P50874 whole entry partner): as the sequence (P50874 whole entry partner) above
T2 sequence (P38826 whole entry partner): as the sequence (P38826 whole entry partner) above

For orientation: Kd means the equilibrium constant for the complex coming apart. In the case of `Nc1ncnc2c1ncn2[C@@H]1O[C@H](COP(=O)(O)OP(=O)(O)OP(=O)(O)O)[C@@H](O)[C@H]1O` [ATP], the Kd was 31 nM on ORC (ScORC, ORC hexamer) [1]; 35 nM at ORC (ScORC, ORC hexamer) [2]; 32 nM at ORC (ScORC, ORC hexamer) [3].
With ARS1 wild-type fragment, the binding signal in data set [4] is > 100.
As for “CCCACATGTCAATTTAGTATATTACTGTATATCTAGTTCATTCTTCAAAATAAAGAATGCATAACCATTTTTTTATGTTTTTTCCGGAATTGGCTAAATTCACAAAAAAAAAGAGCATAAAGCGAATTGAATTGTCTCGCCAAGAAAACGCACTGAGAGGACGATTGATCCTCCAGACAAGATCGGAATTTTTACTTTTCTGTTTTTAACGACGTCGG (double strand) [ARS609 fragment]”, the binding entry in data set [5] and in data set [6] was “binds more weakly” throughout.
Consider “CCGACGTCAGATCTTAATTTATCTCATGAAGTAATGATACCTCAGCGATGTGCTCGCTCGTTAGTATGCTTCATAAATTCATTATTATTTTTTTTTGGAAGTGTTTTTCGACAAAAGTTGCATTTTTACGAAGGATATGTAAACTCAAGAAGTACTAAATAAATATAAATACAATTCGAAAATTTGAAAAAAGTAGGAGACAACACTTTCCTTCCTCACGAAGAAGTTAAGCTTACATGTGGG (double strand) [ARS306 fragment]”, for which the binding result in [5] and in data set [6] was “binds more weakly” in each case.

B1: DL11 (ssDNA)
DNA: GTTACCATGGCATCGAGTTCTTCAACAAGACTACAATGG
With B1, the binding result (with ORC-1K362A hexamer; with ORC-1R367A hexamer; in data set [7]) was “binds” in each case.

B2: ScCdc6 (natural protein, S. cerevisiae, UniProt P09119 1-513, looked up)
chain: MSAIPITPTKRIRRNLFDDAPATPPRPLKRKKLQFTDVTPESSPEKLQFGSQSIFLRTKALLQKSSELVNLNSSDGALPARTAEYEQVMNFLAKAISEHRSDSLYITGPPGTGKTAQLDMIIRQKFQSLPLSLSTPRSKDVLRHTNPNLQNLSWFELPDGRLESVAVTSINCISLGEPSSIFQKIFDSFQDLNGPTLQIKNMQHLQKFLEPYHKKTTFVVVLDEMDRLLHANTSETQSVRTILELFLLAKLPTVSFVLIGMANSLDMKDRFLSRLNLDRGLLPQTIVFQPYTAEQMYEIVIQKMSSLPTIIFQPMAIKFAAKKCAGNTGDLRKLFDVLRGSIEIYELEKRFLLSPTRGSLNSAQVPLTPTTSPVKKSYPEPQGKIGLNYIAKVFSKFVNNNSTRTRIAKLNIQQKLILCTIIQSLKLNSDATIDESFDHYIKAITKTDTLAPLQRNEFLEICTILETCGLVSIKKTKCKGKTKRFVDKIDVDLDMREFYDEMTKISILKPFLH
notes: Cdc6 of S. cerevisiae; source: E. coli, overexpressed and purified
For B2, in data set [8], the binding result was “binds”.
